Assay results published in article PMC8931191.

Molecular target: 3HA-MCHR1 (melanin-concentrating hormone receptor 1) (mouse) (UniProt Q8JZL2)
Sequence of UniProt Q8JZL2 (Q8JZL2 whole entry): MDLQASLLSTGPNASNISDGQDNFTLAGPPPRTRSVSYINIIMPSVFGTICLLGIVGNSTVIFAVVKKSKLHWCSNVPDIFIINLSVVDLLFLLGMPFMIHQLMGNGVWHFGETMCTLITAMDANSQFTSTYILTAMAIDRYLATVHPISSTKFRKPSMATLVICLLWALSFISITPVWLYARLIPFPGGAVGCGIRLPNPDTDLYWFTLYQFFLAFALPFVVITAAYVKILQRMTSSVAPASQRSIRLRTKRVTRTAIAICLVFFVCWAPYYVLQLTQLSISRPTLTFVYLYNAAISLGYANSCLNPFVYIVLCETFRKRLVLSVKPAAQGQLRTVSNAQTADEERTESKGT

LogEC50 of MCH (10^-11 to 10^-6 M), NFAT-luciferase Ca2+ reporter in HEK293T cells with MCHR1 alone: -8.15 log M
LogEC50 of MCH, NFAT-luciferase Ca2+ reporter in HEK293T cells with MCHR1 and MRAP2 WT co-transfected (1:9): -7.06 log M
LogEC50 of MCH, NFAT-luciferase Ca2+ reporter in HEK293T cells with MCHR1 and MRAP2 t97 co-transfected (1:9): -7.34 log M
LogEC50 of MCH, NFAT-luciferase Ca2+ reporter in HEK293T cells with MCHR1 and MRAP2 t118 co-transfected (1:9): -7.59 log M
LogEC50 of MCH, NFAT-luciferase Ca2+ reporter in HEK293T cells with MCHR1 and MRAP2 t143 co-transfected (1:9): -7.6 log M
LogEC50 of MCH, NFAT-luciferase Ca2+ reporter in HEK293T cells with MCHR1 and MRAP2 Δ4–11 co-transfected (1:9): -7.24 log M
LogEC50 of MCH, NFAT-luciferase Ca2+ reporter in HEK293T cells with MCHR1 and MRAP2 Δ12–25 co-transfected (1:9): -6.76 log M
LogEC50 of MCH, NFAT-luciferase Ca2+ reporter in HEK293T cells with MCHR1 and MRAP2 Δ26–35 co-transfected (1:9): -7.55 log M
LogEC50 of MCH, NFAT-luciferase Ca2+ reporter in HEK293T cells with MCHR1 and MRAP2 Δ36–45 co-transfected (1:9): -6.64 log M
LogEC50 of MCH, NFAT-luciferase Ca2+ reporter in HEK293T cells with MCHR1 and MRAP2 Δct co-transfected (1:9): -7.51 log M
Binder: DFDMLRCMLGRVYRPCWQV [Melanin concentrating hormone (MCH)]
